Laboratory results taken from patent publication US6624144B1, “Matrix metalloproteinase inhibitors and down-regulators” (CTT Cancer Targeting Technologies Oy, priority 1998, dated 2003).
Bridge positions count the residues as written; N and C are the ends. Ends that are not written are not given here. Peptide text beside a SMILES is read from it.

Experiments:
[1] = biological target: T1, APMA-activated MMP-2 (Homo sapiens, UniProt P08253); experiment: [125I]-gelatin degradation by APMA-activated MMP-2; format: biochemical; details: 10 μg/ml
T1 construct: endogenous in cells; host or cells: human gingival fibroblasts (serum-free culture medium)
T1 sequence (P08253 110-660): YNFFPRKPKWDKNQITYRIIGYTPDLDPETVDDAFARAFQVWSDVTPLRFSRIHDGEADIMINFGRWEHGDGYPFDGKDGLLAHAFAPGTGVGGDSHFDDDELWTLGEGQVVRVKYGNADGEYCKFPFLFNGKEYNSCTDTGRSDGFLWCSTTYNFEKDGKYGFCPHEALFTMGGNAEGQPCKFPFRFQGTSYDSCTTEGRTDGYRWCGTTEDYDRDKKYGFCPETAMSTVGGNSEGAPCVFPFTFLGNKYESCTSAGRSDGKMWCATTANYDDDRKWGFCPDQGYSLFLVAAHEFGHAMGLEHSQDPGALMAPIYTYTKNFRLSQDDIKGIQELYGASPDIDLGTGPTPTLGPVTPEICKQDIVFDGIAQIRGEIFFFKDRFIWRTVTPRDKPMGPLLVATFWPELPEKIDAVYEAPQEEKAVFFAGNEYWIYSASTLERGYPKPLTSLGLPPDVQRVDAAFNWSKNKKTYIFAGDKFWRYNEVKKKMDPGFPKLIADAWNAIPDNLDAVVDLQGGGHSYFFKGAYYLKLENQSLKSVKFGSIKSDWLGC
Description: (§1) For the gelatin and casein degradation assays, purified MMP-2 and MMP-9 (50-100 ng) were first incubated for 60 min with various concentrations of the peptide inhibitors, after which a 21 kDa β-casein (52 μM) or [^125I]-gelatin substrate was added. After incubation for 2 h at 22 ° C., degradation of the casein was analyzed by SDS gel electrophoresis. The degradation of [^125I]-gelatin was determined by counting radioactivity in the supernatant after precipitation of undegraded gelatin with 20% trichloroacetic acid.
(§2) proMMP-2 was purified from serum-free culture medium of human gingival fibroblasts.

[2] = biological target: T2, proMMP-9 (Homo sapiens, UniProt P14780); experiment: [125I]-gelatin degradation by proMMP-9 (autoactivating); format: biochemical
T2 construct: from tissue; host or cells: human neutrophils
Description: (§3) ProMMP-9 was purified from human neutrophils and activated with aminophenyl mercuric acetate (APMA) essentially as described by Hibbs et al. (1985). For the selection of MMP-9 binding phage, APMA-activated MMP-9 was coated on microtiter wells overnight at 4° C. using a concentration of 1 μg/ml, after which the […] were saturated with 5 % bovine serum albumin. In the first panning, the library was incubated overnight at 4° C. in 50 mM Tris-HCl/0.1 M NaCl buffer (pH 7.5) (TBS) containing 1% bovine serum albumin, and after extensive washing the bound phage were eluted with low pH buffer. In the subsequent pannings, the amplified phage were allowed to bind for 1 h at 22° C. […] The bound phage were quantitated by adding 50 ng per well of anti-M13 antibody (Pharmacia, Uppsala, Sweden) labeled with an Europium-chelate (Wallac Ltd., Turku, Finland). After incubation for 45 min followed by washing, the fluorescence was measured with 1230 Arcus fluorometer (Wallac Ltd., Turku, Finland).
as §1, with “The degradation of [^125I]-gelatin was determined by counting radioactivity in the supernatant after precipitation of undegraded gelatin with 20% trichloroacetic acid.” left out

[3] = biological target: T3, proMMP-2 (Homo sapiens, UniProt P08253); experiment: [125I]-gelatin degradation by proMMP-2; format: biochemical; details: 10 μg/ml
T3 construct: endogenous in cells; host or cells: human gingival fibroblasts (serum-free culture medium)
T3 sequence (P08253 30-660 limits assumed): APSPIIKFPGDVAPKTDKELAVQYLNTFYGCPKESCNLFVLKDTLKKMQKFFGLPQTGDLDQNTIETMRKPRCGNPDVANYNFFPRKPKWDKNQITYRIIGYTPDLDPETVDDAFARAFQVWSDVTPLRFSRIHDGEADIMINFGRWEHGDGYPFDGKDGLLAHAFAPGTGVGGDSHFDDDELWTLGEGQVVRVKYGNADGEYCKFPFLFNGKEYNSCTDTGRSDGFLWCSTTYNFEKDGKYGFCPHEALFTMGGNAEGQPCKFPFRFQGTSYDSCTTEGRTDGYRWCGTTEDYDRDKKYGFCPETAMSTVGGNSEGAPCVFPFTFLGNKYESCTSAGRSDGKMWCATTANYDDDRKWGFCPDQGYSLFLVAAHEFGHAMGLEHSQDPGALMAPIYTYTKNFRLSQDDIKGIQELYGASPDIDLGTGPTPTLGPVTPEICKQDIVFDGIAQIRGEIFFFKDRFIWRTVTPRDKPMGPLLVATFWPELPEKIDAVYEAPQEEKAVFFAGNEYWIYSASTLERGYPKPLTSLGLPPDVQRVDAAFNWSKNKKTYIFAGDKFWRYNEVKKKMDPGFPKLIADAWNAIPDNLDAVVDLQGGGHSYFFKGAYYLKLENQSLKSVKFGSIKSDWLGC
Description: as §1, §2

[4] = biological target: T4, APMA-activated MMP-9 (Homo sapiens, UniProt P14780); experiment: [125I]-gelatin degradation by APMA-activated MMP-9; format: biochemical
T4 construct: from tissue; host or cells: human neutrophils
Description: as §3
as §1, with “The degradation of [^125I]-gelatin was determined by counting radioactivity in the supernatant after precipitation of undegraded gelatin with 20% trichloroacetic acid.” left out

[5] = biological target: T5, MMP-2 (Homo sapiens, UniProt P08253); experiment: β-casein degradation by MMP-2 (SDS gel); format: biochemical; details: APMA-activated MMP-2, β-casein
T5 construct: endogenous in cells; host or cells: human gingival fibroblasts (serum-free culture medium)
T5 sequence (P08253 110-660): T1 sequence (P08253 110-660)
Description: (§4) After 1 h pretreatment with the peptides, APMA-activated MMP-2 (A, C) or proMMP-2 (B, D) was incubated with the casein for 2 h. 52 μM β-casein was used as substrate for MMPs. Shown is Coomassie Blue-staining of the 21 kD β-casein (lane 1) and its fragments (lanes 2-9) resolved by SDS-PAGE (A, B); CTTHWGFTLC(SEQ ID NO:3) was used at the concentrations of (2) 0 μg/ml, (3) 75, (4) 50, (5) 25, (6) 10, (7) 5, (8) 1, and (9) 0.5 μg/ml in the lanes 2-9, respectively. (C, D); the concentrations of CRRHWGFEFC(SEQ ID. NO:2) were 0, 250, 100, 50, 25, 10, 1, and 0.5 μg/ml, respectively.
as §1
(§5) We also used β-casein as a substrate for the gelatinases and analyzed the degradation products by SDS gel electrophoresis.

[6] = biological target: T3, proMMP-2; experiment: β-casein degradation by proMMP-2 not preactivated with APMA; format: biochemical
Description: as §4, §1, §5

[7] = Toxicity when injected into animals; details: in vivo
[8] = Solubility in aqueous buffers
[9] = test system: HT1080 fibrosarcoma cells; experiment: Transwell random migration of HT1080 cells; format: cell-based; details: 500 μg/ml, control peptides
Description: The endothelial cell line HUVEC (human umbilical vein endothelial cells, obtained from the ATCC, Rockville, Md.) was grown in RPMI 1640 medium containing penicillin (100 units/ml), streptomycin (100 μg/ml), 10 mM HEPES, 30 μg/ml endothelial cell growth supplement (Biomedical Technologies, Stoughton, Mass.), and 20% fetal calf serum. The HT1080 fibrosarcoma cells (ATCC, Rockville, Md.), C8161 melanoma cells and Eahy926 cells (derivative of HUVEC) were cultured in Dulbecco's modified Eagle's medium containing the antibiotics, 10% fetal calf serum, and hypoxanthine/aminopterin/thymidine additive with the Eahy926 cells. Cultures of cells were harvested with trypsin-EDTA (endothelial cells) or EDTA alone (other cells), washed, and resuspended in the full serum-containing media as indicated above.
Random cell migration was studied using […] pore size and 6.5 mm diameter Transwell inserts (Costar, Cambridge, Mass.) that were equilibrated in the serum-containing medium for 2 h before use. Tumor cell invasion was studied using 6.4 mm diameter Boyden chambers precoated with Matrigel (Becton Dickinson, Bedford, MA) and equilibrated in the serum-containing medium. […] Cells were removed from the upper surface of the membrane with a cotton swab, and the cells migrated on the undersite of the membrane were counted microscopically, or alternatively quantitated by scanning.

[10] = biological target: T6, APMA-activated MMP-2 (human, UniProt P08253 30-660); experiment: cell-based or functional assay
T6 sequence (looked up): T3 sequence (P08253 30-660 limits assumed)

[11] = biological target: T7, proMMP-2 (human, UniProt P08253 30-660); experiment: cell-based or functional assay
T7 sequence (looked up): T3 sequence (P08253 30-660 limits assumed)

[12] = biological target: T8, proMMP-9 (human, UniProt P14780 20-707); experiment: phage binding (attachment) assay
T8 construct: also called 92 kDa proMMP-9

[13] = biological target: APMA-activated MMP-9 (human, UniProt P14780 94-707); experiment: cell-based or functional assay

T4 sequence (P14780 107-707 limits assumed): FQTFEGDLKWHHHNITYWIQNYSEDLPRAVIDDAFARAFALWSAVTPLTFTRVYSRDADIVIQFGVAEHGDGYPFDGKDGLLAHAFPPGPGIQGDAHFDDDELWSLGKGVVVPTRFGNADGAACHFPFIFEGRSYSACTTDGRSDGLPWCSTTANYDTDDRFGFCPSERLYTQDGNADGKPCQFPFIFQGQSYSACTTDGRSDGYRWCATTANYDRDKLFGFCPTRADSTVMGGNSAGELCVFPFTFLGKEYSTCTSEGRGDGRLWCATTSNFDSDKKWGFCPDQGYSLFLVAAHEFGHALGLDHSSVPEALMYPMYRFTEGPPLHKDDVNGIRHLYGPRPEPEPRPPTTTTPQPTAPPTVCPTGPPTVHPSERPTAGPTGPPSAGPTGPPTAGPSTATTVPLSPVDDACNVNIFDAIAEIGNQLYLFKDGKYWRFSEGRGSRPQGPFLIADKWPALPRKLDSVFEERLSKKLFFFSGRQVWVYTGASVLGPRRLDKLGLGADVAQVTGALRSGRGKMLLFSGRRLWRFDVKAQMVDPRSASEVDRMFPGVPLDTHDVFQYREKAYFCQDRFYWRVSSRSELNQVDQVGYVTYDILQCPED
T2 sequence (P14780 20-707 limits assumed): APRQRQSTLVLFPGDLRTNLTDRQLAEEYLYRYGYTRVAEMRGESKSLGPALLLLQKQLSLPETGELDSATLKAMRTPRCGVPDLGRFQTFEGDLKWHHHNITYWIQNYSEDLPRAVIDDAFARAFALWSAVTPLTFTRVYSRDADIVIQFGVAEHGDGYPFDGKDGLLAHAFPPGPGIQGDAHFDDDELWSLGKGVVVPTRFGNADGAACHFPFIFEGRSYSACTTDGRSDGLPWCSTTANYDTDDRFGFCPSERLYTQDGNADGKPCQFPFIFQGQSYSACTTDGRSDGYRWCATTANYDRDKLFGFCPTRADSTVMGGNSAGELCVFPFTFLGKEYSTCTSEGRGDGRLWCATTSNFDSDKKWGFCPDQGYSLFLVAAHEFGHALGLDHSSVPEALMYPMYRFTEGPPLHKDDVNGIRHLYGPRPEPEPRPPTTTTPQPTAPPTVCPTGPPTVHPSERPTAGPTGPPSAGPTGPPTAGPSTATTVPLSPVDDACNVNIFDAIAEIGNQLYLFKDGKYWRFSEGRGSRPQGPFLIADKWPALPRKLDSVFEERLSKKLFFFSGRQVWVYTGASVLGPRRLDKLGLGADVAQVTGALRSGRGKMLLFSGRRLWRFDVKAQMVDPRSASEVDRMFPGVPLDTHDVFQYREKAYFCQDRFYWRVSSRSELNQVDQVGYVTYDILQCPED
T8 sequence (P14780 20-707): as the sequence (P14780 20-707 limits assumed) above

linear CRRHWGFEFC: linearized version of CRRHWGFEFC prepared by reducing and alkylating the cysteine residues (also: cysteines reduced and alkylated, alkylating agent not given here)
gelatinolysis by APMA-activated MMP-2 [1]: virtually inactive
inhibitory activity against proMMP-9 gelatinolysis ([2]; 10 μg/ml (FIG. 2)): loss of inhibitory activity
gelatinolysis by proMMP-2 [3]: virtually inactive
inhibitory activity against APMA-activated MMP-9 gelatinolysis ([4]; 10 μg/ml (FIG. 2)): loss of inhibitory activity

CC(C)C[C@@H]1NC(=O)[C@H]([C@@H](C)O)NC(=O)[C@H](Cc2ccccc2)NC(=O)CNC(=O)[C@H](Cc2c[nH]c3ccccc23)NC(=O)[C@H](Cc2c[nH]cn2)NC(=O)[C@H]([C@@H](C)O)NC(=O)[C@H]([C@@H](C)O)NC(=O)[C@@H](N)CSSC[C@@H](C(=O)O)NC1=O [CTTHWGFTLC] (H-CTTHWGFTLC-OH; disulfide 1-10; N-terminus and C-terminus assumed)
IC50 [5]: ~4.29 µM
IC50 [6]: 4.29 µM
toxicity when injected into animals [7]: no toxicity

N=C(N)NCCC[C@@H]1NC(=O)[C@H](CCCNC(=N)N)NC(=O)[C@@H](N)CSSC[C@@H](C(=O)O)NC(=O)[C@H](Cc2ccccc2)NC(=O)[C@H](CCC(=O)O)NC(=O)[C@H](Cc2ccccc2)NC(=O)CNC(=O)[C@H](Cc2c[nH]c3ccccc23)NC(=O)[C@H](Cc2c[nH]cn2)NC1=O [CRRHWGFEFC] (H-CRRHWGFEFC-OH; disulfide 1-10; N-terminus and C-terminus assumed)
IC50 [5]: ~18.7 µM
inhibition of proMMP-9 gelatinolytic activity ([2]; peptide 10 μg/ml): more than 50%
IC50 [6]: 18.7 µM
IC50 ([4]; APMA-activated MMP-9, read-out: half-maximal inhibitory value (IC50), [125I]-gelatin degradation (converted)): ~7.47 µM

CQWNNDNPLFKEAEEEVMNPKFAES
solubility [8]: highly soluble

EVGTGSCNLECVSTNPLSGTEQ (Targeted to Homo sapiens)
effect on cell migration [9]: None of these control peptides affected cell migration
solubility [8]: highly soluble

RAVRALWRC [RAVRALWRC]
solubility [8]: highly soluble

CTTHWGFTLC (disulfide 1-10 (inferred)) [cyclic CTTHWGFTLC synthetic peptide]
IC50, β-casein degradation (SDS-PAGE) [10]: ~5 µg/mL
IC50, β-casein degradation (SDS-PAGE) [11]: 5 µg/mL

B1: phage clone displaying CRRHWGFEFC (from the CX9 library) (peptide)
peptide: CRRHWGFEFC
notes: not shown: phage coat protein to which the peptide is fused
binding result [12]: no binding

B2: phage clone displaying CSLHWGFWWC (from the CX9 library) (peptide)
peptide: CSLHWGFWWC
notes: as for B1
binding result [12]: no binding

CRRHWGFEFC (disulfide 1-10 (inferred)) [cyclic CRRHWGFEFC synthetic peptide]
IC50, β-casein degradation (SDS-PAGE) [10]: ~25 µg/mL
IC50, β-casein degradation (SDS-PAGE) [11]: 25 µg/mL
IC50, [125I]-gelatin degradation assay [13]: ~10 µg/mL
